Experimental data from PMC5454392, “Selective BET bromodomain inhibition as an antifungal therapeutic strategy” (Nature Communications, 2017).
Read-outs that look alike come from different tables or passages of the source. Square brackets hold non-standard residues; d marks the D form. Ends that are not written are not given here. Arg(Me2a) = CN(C)C(=N)NCCC[C@H](N)C(=O)O

T1: CaBdf1 BD2 (Candida albicans, UniProt Q5A4W8)
T1 construct: made in house; host or cells: E. coli BL21(DE3)
T1 sequence (Q5A4W8 whole entry, looked up): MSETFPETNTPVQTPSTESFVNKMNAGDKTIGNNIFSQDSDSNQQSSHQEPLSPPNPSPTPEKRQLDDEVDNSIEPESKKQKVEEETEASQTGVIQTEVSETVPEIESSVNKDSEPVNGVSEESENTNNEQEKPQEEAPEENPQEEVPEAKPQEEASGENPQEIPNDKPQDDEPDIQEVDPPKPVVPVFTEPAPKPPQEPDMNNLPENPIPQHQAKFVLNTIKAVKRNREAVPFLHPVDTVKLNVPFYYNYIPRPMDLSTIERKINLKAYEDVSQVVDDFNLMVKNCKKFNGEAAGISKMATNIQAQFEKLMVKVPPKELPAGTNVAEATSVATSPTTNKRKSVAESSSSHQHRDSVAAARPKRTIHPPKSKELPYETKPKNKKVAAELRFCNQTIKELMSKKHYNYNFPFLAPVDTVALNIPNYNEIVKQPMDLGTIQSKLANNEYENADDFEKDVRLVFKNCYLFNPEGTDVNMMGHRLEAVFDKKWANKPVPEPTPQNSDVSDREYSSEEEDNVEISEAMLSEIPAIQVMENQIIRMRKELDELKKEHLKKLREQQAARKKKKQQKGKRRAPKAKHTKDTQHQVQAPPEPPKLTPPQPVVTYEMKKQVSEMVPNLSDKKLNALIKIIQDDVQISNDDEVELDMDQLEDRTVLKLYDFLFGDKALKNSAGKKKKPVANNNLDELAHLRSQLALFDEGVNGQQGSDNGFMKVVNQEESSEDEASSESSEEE

T2: CaBdf1 BD1 (Candida albicans, UniProt Q5A4W8)
T2 construct: made in house; host or cells: E. coli BL21(DE3)
T2 sequence (Q5A4W8 whole entry, looked up): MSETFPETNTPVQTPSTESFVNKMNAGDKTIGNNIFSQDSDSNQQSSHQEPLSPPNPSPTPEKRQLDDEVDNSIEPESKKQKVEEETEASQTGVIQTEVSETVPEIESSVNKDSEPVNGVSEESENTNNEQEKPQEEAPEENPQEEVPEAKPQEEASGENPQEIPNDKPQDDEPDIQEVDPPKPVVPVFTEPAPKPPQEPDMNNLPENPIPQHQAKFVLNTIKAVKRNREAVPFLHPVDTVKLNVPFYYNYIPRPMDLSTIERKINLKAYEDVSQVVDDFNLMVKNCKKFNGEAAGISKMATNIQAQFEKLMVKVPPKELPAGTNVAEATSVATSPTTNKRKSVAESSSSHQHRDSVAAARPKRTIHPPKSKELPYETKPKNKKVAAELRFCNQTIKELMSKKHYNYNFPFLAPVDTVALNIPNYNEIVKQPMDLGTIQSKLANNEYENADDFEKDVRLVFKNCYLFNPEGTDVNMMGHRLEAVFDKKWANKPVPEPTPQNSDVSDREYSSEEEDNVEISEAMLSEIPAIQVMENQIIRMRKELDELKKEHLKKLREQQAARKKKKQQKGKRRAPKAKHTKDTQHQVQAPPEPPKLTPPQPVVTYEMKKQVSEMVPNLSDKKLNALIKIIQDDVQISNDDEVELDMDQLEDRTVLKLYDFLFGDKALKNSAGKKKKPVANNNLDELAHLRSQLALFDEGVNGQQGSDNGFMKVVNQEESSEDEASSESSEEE

T3: CaBdf1 BD2 (GST-tagged, wild-type) (Candida albicans (strain SC5314 / ATCC …, UniProt Q5A4W8))
T3 chain: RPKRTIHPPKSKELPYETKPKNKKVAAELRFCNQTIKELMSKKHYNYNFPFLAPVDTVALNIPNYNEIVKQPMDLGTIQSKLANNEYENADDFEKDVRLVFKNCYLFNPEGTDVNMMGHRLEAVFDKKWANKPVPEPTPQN

T4: CaBdf1 BD1 (GST-tagged, wild-type) (Candida albicans (strain SC5314 / ATCC …, UniProt Q5A4W8))
T4 chain: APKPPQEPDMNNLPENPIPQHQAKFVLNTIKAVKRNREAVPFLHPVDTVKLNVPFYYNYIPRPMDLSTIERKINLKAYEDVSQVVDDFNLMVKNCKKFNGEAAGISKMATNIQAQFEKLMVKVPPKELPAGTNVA


Experiments:
CaBdf1 BD2 Y425F = target: T5, CaBdf1 BD2 Y425F (Candida albicans, UniProt Q5A4W8, Y425F); assay: Histone peptide microarray binding, YF mutant;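 on CaBdf1 BD2 Normalized (0 to 100%) YF mutant: normalized to spotted c-myc peptide positive control signal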; design: species or system C. albicans; conditions: YF mutant BD2; for CaBdf1 BD2 Normalized (0 to 100%) YF mutant: normalized array signal; for CaBdf1 BD2 Raw data YF mutant: peptide array signal
T5 construct: made in house; host or cells: E. coli BL21(DE3), inferred from the wild-type GST construct
Procedure: (§1) In short, arrays were blocked and incubated with 1 μM of purified CaBdf1 BD1 or BD2. Arrays were incubated with recombinant BDs for 2 h at 4 °C in binding buffer (Tris-HCl 50 mM pH 7.4, NP-40 0.1%, NaCl 150 mM, glycerol 10%). […] Assays were performed in duplicate. Images were acquired on a Bio-Rad ChemiDoc XRS Imaging machine and data were quantified using the array analyser software provided by Active Motif.

CaBdf1 BD1 Y248F = target: T6, CaBdf1 BD1 Y248F (Candida albicans, UniProt Q5A4W8, Y248F); assay: Histone peptide microarray binding, YF mutant;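 on CaBdf1 BD1 Normalized (0 to 100%) YF mutant: normalized to spotted c-myc peptide positive control signal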; design: species or system C. albicans; conditions: YF mutant BD1; for CaBdf1 BD1 Normalized (0 to 100%) YF mutant: normalized array signal; for CaBdf1 BD1 Raw data YF mutant: peptide array signal
T6 construct: made in house; host or cells: E. coli BL21(DE3), inferred from the wild-type GST construct
Procedure: as §1

CaBdf1 BD2 = target: T1, CaBdf1 BD2; type: binding; conditions: wild-type BD2; for CaBdf1 BD2 Normalized (0 to 100%) WT: normalized array signal; for CaBdf1 BD2 Raw data WT: peptide array signal
Procedure: (§2) In short, arrays were blocked and incubated with 1 μM of purified CaBdf1 BD1 or BD2. Arrays were incubated with recombinant BDs for 2 h at 4 °C in binding buffer (Tris-HCl 50 mM pH 7.4, NP-40 0.1%, NaCl 150 mM, glycerol 10%). […] Assays were performed in duplicate.

CaBdf1 BD1 = target: T2, CaBdf1 BD1; type: binding; conditions: wild-type BD1; for CaBdf1 BD1 Normalized (0 to 100%) WT: normalized array signal; for CaBdf1 BD1 Raw data WT: peptide array signal
Procedure: as §2

[1] = target: T3, CaBdf1 BD2 (GST-tagged, wild-type); assay: histone peptide array (Active Motif MODified), 1 uM GST-tagged bromodomain, anti-GST detection, normalized mean intensity
[2] = target: T4, CaBdf1 BD1 (GST-tagged, wild-type); assay: as above
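Wherever CaBdf1 BD1 Normalized (0 to 100%) WT is given: normalized to spotted c-myc peptide positive control signal.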
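Wherever CaBdf1 BD2 Normalized (0 to 100%) WT is given: normalized to spotted c-myc peptide positive control signal.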

T5 sequence (Q5A4W8 361-501 Y425F): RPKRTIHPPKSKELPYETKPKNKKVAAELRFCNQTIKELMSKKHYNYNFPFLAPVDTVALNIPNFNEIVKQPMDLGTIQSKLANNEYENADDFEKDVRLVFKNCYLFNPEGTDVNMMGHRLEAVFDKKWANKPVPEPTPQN
T6 sequence (Q5A4W8 193-327 Y248F): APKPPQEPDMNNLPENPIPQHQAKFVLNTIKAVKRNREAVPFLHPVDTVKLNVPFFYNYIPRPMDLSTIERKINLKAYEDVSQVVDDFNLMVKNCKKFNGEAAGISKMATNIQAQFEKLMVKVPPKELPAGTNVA

Molecule | CaBdf1 BD2 Normalized (0 to 100%) YF mutant (CaBdf1 BD2 Y425F) | CaBdf1 BD1 Normalized (0 to 100%) YF mutant (CaBdf1 BD1 Y248F) | CaBdf1 BD1 Raw data YF mutant (CaBdf1 BD1 Y248F; first of two raw-data columns) | CaBdf1 BD1 Raw data YF mutant (CaBdf1 BD1 Y248F) | CaBdf1 BD2 Normalized (0 to 100%) WT (CaBdf1 BD2) | CaBdf1 BD2 Raw data WT (CaBdf1 BD2; first of two raw-data columns) | CaBdf1 BD2 Raw data WT (CaBdf1 BD2) | CaBdf1 BD1 Normalized (0 to 100%) WT (CaBdf1 BD1) | CaBdf1 BD1 Raw data WT (CaBdf1 BD1; first of two raw-data columns) | CaBdf1 BD1 Raw data WT (CaBdf1 BD1) | CaBdf1 BD2 Raw data YF mutant (CaBdf1 BD2 Y425F; first of two raw-data columns) | CaBdf1 BD2 Raw data YF mutant (CaBdf1 BD2 Y425F) | binding score [1] | binding score [2]
A Rme2s T Kac Q T A R Kme3 S T G G K A P R K Q | 0.293% | 0.727% | 0.007202 | 0.004458 | 0.259% | 0.01579 | 0.0006863 | 0.616% | 0.005879 | 0.006948 | – | – | – | –
A Rme2a T Kme3 Q T A R Kme2 S T G G K A P R K Q | 0.244% | 0.554% | 0.005487 | 0.006859 | 0.296% | 0.01579 | 0.001373 | 0.145% | 0.002672 | 0.003207 | 0.002427 | 0.003398 | – | –
A Rme2a T Kme3 Q T A R Kac S T G G K A P R K Q | 0.244% | 0.554% | 0.005487 | 0.004801 | 0.518% | 0.006177 | 0.0151 | 3.44% | 0.01924 | 0.03528 | 0.002427 | 0.002427 | – | –
A Rme2s T Kme2 Q T A R Kme3 S T G G K A P R K Q | 0.44% | 0.312% | 0.003086 | 0.002058 | 0.444% | 0.01716 | 0.002745 | 0.145% | 0.004276 | 0.001603 | 0.004369 | 0.002427 | – | –
A Rme2s T Kac Q T A Rme2s K S T G G K A P R K Q | 0.293% | 0.485% | 0.004801 | 0.003086 | 0.518% | – | 0.01235 | 0.363% | 0.003741 | 0.005345 | – | 0.003398 | – | –
A Rme2s T Kme3 Q T A R Kme3 S T G G K A P R K Q | 0.537% | 0.797% | 0.007888 | 0.003772 | 0.481% | 0.01784 | 0.002745 | 0.254% | 0.003207 | 0.004276 | 0.00534 | 0.002427 | – | –
A[Arg(Me2a)]TKQTARKSTGGKAPRKQ [H3 1-19] | – | – | – | – | – | – | – | – | – | – | – | – | 0.00296 | 0.000363
